Results: PMC10418658, “Biochemical and Structural Insights into a Thiamine Diphosphate-Dependent α-Ketoglutarate Decarboxylase from Cyanobacterium Microcystis aeruginosa NIES-843” (International Journal of Molecular Sciences, 2023)
Residue numbers refer to the chain shown, from its start. In names and notes the source's numbering stands.

How the values were obtained:
Experiment in all cases: purified protein
[1] = substrate: Cc1ncc(C[n+]2csc(CCO[P@](=O)(O)OP(=O)(O)O)c2C)c(N)n1; conditions: half-saturation of activity, varied: cofactor
[2] = substrate: O=C(O)CCC(=O)C(=O)O; assay type: biochemical, Microcystis aeruginosa; conditions: 1 mM ThDP, 2 mM Mg2+, 100 mM HEPES pH 7.0, 10% glycerol, 25 °C
[3] = substrate: Cc1ncc(C[n+]2csc(CCO[P@](=O)(O)OP(=O)(O)O)c2C)c(N)n1; assay type: biochemical, Microcystis aeruginosa; conditions: 10 mM α-ketoglutarate, 2 mM Mg2+, 100 mM HEPES pH 7.0, 10% glycerol, 25 °C, varied: cofactor
[4] = substrate: O=C(O)CCC(=O)C(=O)O; assay type: biochemical, Synechocystis sp. PCC 6803; conditions: saturated ThDP and Mg2+; purified from coexpression with pTf16

B1: MaKGD (Microcystis aeruginosa NIES-843) (protein)
chain: MGELNTAELLVKCLENEGVEYIFGLPGEENLDVLEALKNSSIKFITTRHEQGAAFMADVYGRLTGKAGVCLSTLGPGATNLMTGVADANLDGAPLVAITGQVGTDRMHIESHQYLDLVAMFAPVTKWNKQIVRPGITPEVVRRAFKTAQSEKPGAVHIDLPENIAAMAADGHPLPLDSQEKVYASYRTLNMAAAVISKAKNPLILAGNGAIRANASEALTEFATALNIPVANTFMGKGVIPYTHPLALWAVGLQQRDLISCAFERSDLIIAVGYDLIEYSPKKWNPDGKLPIIHIGMTPAEIDSSYAPVVEVVGDITDSLIDILKRADRQNKPTPVTAGLKTEIRADYETYANDTGFPIKPQKLIYDLRQVMGPEDIAICDVGAHKMWMARQYHSDCPNTCIISNGFAAMGIAIPGAIAAKLVYPNKRIVAVTGDGGFMMNCQELETALRVGTPFVTLIFNDGGYGLIEWKQLNYFGTSSFIKFGNPDFVKFAESMGLKGYRVESTQDLIPTLEEAFRQEVPTVIDVPVDYGENLRLSQKSGDLSCQIWE
notes: full length, pET28a (NdeI/XhoI), E. coli BL21(DE3) with chaperone plasmid pTf16, imidazole-eluted; codon-optimised gene
- K0.5 ([1]; 10 mM α-ketoglutarate, 2 mM Mg2+, 100 mM HEPES pH 7.0, 10% glycerol, 25 °C, pH 7.0, 25.0 °C): 0.0056 ± 0.0007 mM
- Km [2]: 870 ± 230 µM
- kcat [2]: 7.8 ± 0.5 s⁻¹
- kcat/Km [2]: 8970 M⁻¹ s⁻¹

B2: MaKGD (Microcystis aeruginosa NIES-843; L467A) (protein)
chain: B1 chain with L467A
notes: as for B1
- K0.5 [3]: 0.026 ± 0.004 mM
- Km [2]: 1220 ± 510 µM
- kcat [2]: 2.7 ± 0.32 s⁻¹

B3: MaKGD (Microcystis aeruginosa NIES-843; M410A) (protein)
chain: B1 chain with M410A
notes: as for B1
- K0.5 [3]: 0.046 ± 0.010 mM

B4: MaKGD (Microcystis aeruginosa NIES-843; D435E) (protein)
chain: B1 chain with D435E
notes: as for B1
- K0.5 [3]: 0.041 ± 0.003 mM

B5: MaKGD (Microcystis aeruginosa NIES-843; D462N) (protein)
chain: B1 chain with D462N
notes: as for B1
- K0.5 [3]: 0.008 ± 0.001 mM
- Km [2]: 3920 ± 450 µM
- kcat [2]: 1.5 ± 0.36 s⁻¹

B6: MaKGD (Microcystis aeruginosa NIES-843; D462E) (protein)
chain: B1 chain with D462E
notes: as for B1
- K0.5 [3]: 0.761 ± 0.143 mM
- Km [2]: 2380 ± 630 µM
- kcat [2]: 9 ± 0.47 s⁻¹

B7: MaKGD (Microcystis aeruginosa NIES-843; Y465A) (protein)
chain: B1 chain with Y465A
notes: as for B1
- K0.5 [3]: 0.090 ± 0.021 mM
- Km [2]: 1480 ± 270 µM
- kcat [2]: 1.23 ± 0.25 s⁻¹

B8: MiKGD (Microcystis aeruginosa NIES-4325) (protein)
chain: MGELNTAELLVKCLENEGVEYIFGLPGEENLDVLEALKNSSIKFITTRHEQGAAFMADVYGRLTGKAGVCLSTLGPGATNLMTGVADANLDGAPLVAITGQVGTDRMHIESHQYLDLVAMFAPVTKWNKQIVRPGITPEVVRRAFKTAQSEKPGAVHIDLPENIAAMPADGHPLPLDSQEKVYASYRTLNMAAAVISKAKNPLILAGNGAIRANASEALTEFATALNIPVANTFMGKGVIPYTHPLALWAVGLQQRDLISCAFDRSDLIIAVGYDLIEYSPKKWNPEGKLPIIHIGMTPAEIDSSYAPVVEVVGDITDSLIDILKRADRQNKPTPVTAGLKTEIRADYETYANDTGFPIKPQKLIYDLRQVMGPEDIVISDVGAHKMWMARQYHSDCPNTCIISNGFAAMGIAIPGAIAAKLVHPDKRVVAVTGDGGFMMNCQELETALRVGTPFVTLIFNDGGYGLIEWKQFNYFGTSSFIKFGNPDFVKFAESMGLKGYRVESAQDLIPILEEAFQQEVPTVIDVPVDYGENLRLSQKSGDLSCQIWE
notes: full length, pET28a (NdeI/XhoI), E. coli BL21(DE3) with chaperone plasmid pTf16; codon-optimised gene
- K0.5 ([3]; half-saturation of activity): 0.026 ± 0.006 mM
- Km [2]: 4470 ± 630 µM
- kcat [2]: 4.33 ± 0.37 s⁻¹
- kcat/Km [2]: 970 M⁻¹ s⁻¹

B9: StKGD (Synechocystis sp. PCC 6803 substr. Kazusa) (protein)
chain: MGQMNTADLLVQCLENEDVEYIFGVPGEENLHILEALKNSPIRFITTRHEQGAAFMADVYGRLTGKAGVCLSTLGPGATNLMTGVADANLDGAPLVAITGQVGTDRMHIESHQYLDLVAMFDPVTKWTRQIVRPSITPEVVRKAFKLAQSEKPGATHIDLPENIAAMPVDGKPLRRDSREKVYAAFRTLGTAANAISKAKNPIILAGNGTIRAEASEALTEFATSLNIPVANTFMGKGTMPYTHPLSLWTVGLQQRDHITCAFEKSDLVIAVGYDLIEYSPKKWNPTGDLPIIHIGATPAEIDSSYIPQVEVVGDITDSLMDLLKRCDRQGKPTPYGASLRAEIRAEYECYANDTGFPVKPQKIIYDLRQVMGPDDVVISDVGAHKMWMARHYHCDSPNTCLISNGFAAMGIAIPGAIAAKLVYPERNIVAVTGDGGFMMNCQELETAMRVGTPFVTLIFNDNGYGLIEWKQINQFGESSFIKFGNPDFVKFAESMGLKGYRVEAAADLIPILKEALAQPVPTVIDCPVDYRENIRFSQKAGELACEIWE
notes: recombinant, coexpressed with chaperone plasmid pTf16 and purified again in this study
- K0.5 ([1]; purified from coexpression with pTf16): 0.063 ± 0.019 mM
- Km [4]: 3830 ± 750 µM
- kcat [4]: 3.07 ± 0.42 s⁻¹
- kcat/Km [4]: 800 M⁻¹ s⁻¹
